The results in this text go back to US20240279356A1 (Xencor, published 2024).

Experiment [1] deals with T1, human MSLN antigen (human, UniProt Q13421 296-580, limits assumed).
T1 construct: Soluble antigen for BLI; also called Mesothelin; MESO
As to the kind of experiment: Octet BLI on human MSLN antigen (Example 2B(a)); KD quoted in the FIG. 35 legend. The source says: Variants of MESO-C were engineered by introducing point substitutions into the variable heavy region (VH) and the variable light region (VL) to generate 11 VH variants and 16 VL variants (sequences for which are depicted in FIG. 18 as H1.1-H1.13 and in FIG. 19 as L1.1-L1.18). An additional 4 VL variants were generated by combining useful point substitutions (sequences for which are depicted in FIG. 19 as L1.19-L1.22). WT and variant variable heavy regions were paired with WT and variant variable light regions to generate variant variable regions (Fvs) which were produced in the context of anti-MSLN×anti-CD3 bispecific antibodies. The bispecific antibodies were screened for MSLN binding affinity using Octet®, a BioLayer Interferometry (BLI)-based method. Experimental steps for Octet® generally include the following: Immobilization (capture of ligand to a biosensor); Association (dipping of ligand-coated biosensors into wells containing the analyte); and Dissociation (returning of biosensors to well containing buffer). In an initial screening, anti-human Fc sensors were used to capture the bispecific mAbs and dipped into human MSLN antigen (one concentration to screen large library). The resulting dissociation constant of illustrative variants (KD), association rate (kₐ), dissociation rate (kd), as well as sensorgram response are depicted in FIG. 20. In further screening of favorite variants identified in the initial screen (and combination variants), bispecific mAbs were dipped into multiple concentrations of human MSLN antigen, data for which are depicted in FIG. 21 (from various screens).

Experiment [2] deals with T1, human MSLN antigen. As to the kind of experiment: Octet BLI; bsAb on anti-human Fc sensor, human MSLN as analyte, one concentration. In a few lines: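 Anti-MSLN×anti-CD3 bispecifics carrying MESO-C VH/VL variant Fvs were captured on anti-human Fc biosensors and dipped into human MSLN antigen, followed by buffer dissociation. Initial library screen used one antigen concentration; selected and combination variants were run at multiple concentrations, giving KD, ka and kd.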
In general terms: BLI is a label-free optical method that tracks binding on a fibre tip over time.

The target of experiment [3] is T2, cyno MSLN (Macaca fascicularis (cynomolgus)).
T2 construct: soluble antigen for Octet; also called cynomolgus MSLN
As to the kind of experiment: Octet BLI; bsAb on anti-human Fc sensor, cyno MSLN as analyte, one concentration.

Experiment [4] deals with T2, cyno MSLN. Nature of the experiment: Octet BLI, several concentrations; lower table, column head only 'cyno MSLN (M)'.
Experiment [5] addresses T1, human MSLN antigen. As to the kind of experiment: MSLN binding affinity (Octet BLI, Example 2B(a)); quoted in the RTCC example.

Residue numbers refer to the chain shown, from its start.

T1 sequence (Q13421 other isoform, or with tags, fused parts or gaps limits assumed): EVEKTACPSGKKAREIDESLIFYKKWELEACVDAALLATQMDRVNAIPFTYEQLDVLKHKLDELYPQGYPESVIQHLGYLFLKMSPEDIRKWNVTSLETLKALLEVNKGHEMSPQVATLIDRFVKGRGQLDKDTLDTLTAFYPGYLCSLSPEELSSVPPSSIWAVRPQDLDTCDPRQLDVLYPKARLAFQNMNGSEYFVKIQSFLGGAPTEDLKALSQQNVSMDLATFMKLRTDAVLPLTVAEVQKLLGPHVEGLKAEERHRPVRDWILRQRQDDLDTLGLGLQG

B1: XENP32552 (bispecific antibody)
heavy: QVQLVQSGAEVKKPGASVKVSCKASGYTFTSYWMHWVRQAPGQGLEWMGWIHPNSDNTIYYEKFQGRVTMTVDKSISTAYMELSRLRSDDTAVYYCAIIITPVVPKFDYWGQGTLVTVSSASTKGPSVFPLAPSSKSTSGGTAALGCLVKDYFPEPVTVSWNSGALTSGVHTFPAVLQSSGLYSLSSVVTVPSSSLGTQTYICNVNHKPSDTKVDKKVEPKSCDKTHTCPPCPAPPVAGPSVFLFPPKPKDTLMISRTPEVTCVVVDVKHEDPEVKFNWYVDGVEVHNAKTKPREEEYNSTYRVVSVLTVLHQDWLNGKEYKCKVSNKALPAPIEKTISKAKGQPREPQVYTLPPSREEMTKNQVSLTCDVSGFYPSDIAVEWESDGQPENNYKTTPPVLDSDGSFFLYSKLTVDKSRWEQGDVFSCSVMHEALHNHYTQKSLSLSPGK
scFv-Fc: not shown
light: DIVMTQSPDSLAVSLGERATINCKASHDVGTSVAWYQQKPGQSPKLLIYWASTRHTGVPDRFTGSGSGTDFTLTISSLQAEDVAVYFCQQYSSYPLTFGAGTKLEIKRTVAAPSVFIFPPSDEQLKSGTASVVCLLNNFYPREAKVQWKVDNALQSGNSQESVTEQDSKDSTYSLSSTLTLSKADYEKHKVYACEVTHQGLSSPVTKSFNRGEC
notes: 1+1 Fab-scFv-Fc
One may read the Kd as the free concentration of one partner at which half of the binding sites on the other are occupied at equilibrium, for simple one-to-one binding. A word on the koff: it is the first-order rate constant of dissociation. As usually defined, the kon is the second-order rate constant of association. As to B1, the Kd with human MSLN antigen [1] worked out at 9.2 nM; with human MSLN antigen [2], 30 nM; with cyno MSLN [3] it was 32.1 nM; in the experiment with cyno MSLN [4], 10 nM. Moreover, the Response in the experiment with human MSLN antigen [2] worked out at 0.915; in the experiment with cyno MSLN [3], 0.827. Besides, the figures for the koff in the experiment with human MSLN antigen [2] and with cyno MSLN [3] were 0.0147 s⁻¹ and 0.0148 s⁻¹, respectively. In addition, the kon in the experiment with human MSLN antigen [2] stood at 491000 M⁻¹ s⁻¹; with cyno MSLN [3], 459000 M⁻¹ s⁻¹.

B2: XENP33367 (bispecific antibody)
heavy: B1 heavy
Fab-scFv-Fc: QVQLVQSGAEVKKPGASVKVSCKASGYTFTSYWMHWVRQAPGQGLEWMGWIHPNSDNTIYYEKFQGRVTMTVDKSISTAYMELSRLRSDDTAVYYCAIIITPVVPKFDYWGQGTLVTVSSASTKGPSVFPLAPSSKSTSGGTAALGCLVKDYFPEPVTVSWNSGALTSGVHTFPAVLQSSGLYSLSSVVTVPSSSLGTQTYICNVNHKPSNTKVDKKVEPKSCGGGGSGGGGSQAVVTQEPSLTVSPGGTVTLTCGSSTGAVTTSNYANWVQQKPGKSPRGLIGGTNKRAPGVPARFSGSLLGGKAALTISGAQPEDEADYYCALWYSNHWVFGGGTKLTVLGKPGSGKPGSGKPGSGKPGSEVQLVESGGGLVQPGGSLRLSCAASGFTFSTYAMNWVRQAPGKGLEWVGRIRSKANNYATYYADSVKGRFTISRDDSKNTLYLQMNSLRAEDTAVYYCVRHGNFGDSYVSWFAYWGQGTLVTVSSGGGGSGGGGSKTHTCPPCPAPPVAGPSVFLFPPKPKDTLMISRTPEVTCVVVDVKHEDPEVKFNWYVDGVEVHNAKTKPREEQYNSTYRVVSVLTVLHQDWLNGKEYKCKVSNKALPAPIEKTISKAKGQPREPQVYTLPPSREQMTKNQVKLTCLVKGFYPSDIAVEWESNGQPENNYKTTPPVLDSDGSFFLYSKLTVDKSRWQQGNVFSCSVMHEALHNHYTQKSLSLSPGK
light: B1 light with Y94F
notes: 2+1 Fab2-scFv-Fc
B2 registered an equilibrium dissociation constant (Kd) with human MSLN antigen [5] of 246 nM.

B3: XENP33366 (bispecific antibody)
heavy: B1 heavy
Fab-scFv-Fc: B2 Fab-scFv-Fc
light: B1 light with T31Q
notes: 2+1 Fab2-scFv-Fc
The molecule B3 had a Kd in the experiment with human MSLN antigen [5] of 90.4 nM.

B4: XENP32567 (bispecific antibody)
heavy: B1 heavy with W50M
scFv-Fc: not shown
light: B1 light with S92Y
notes: 1+1 Fab-scFv-Fc
B4: the Kd with human MSLN antigen [1] worked out at 3.9 nM. Moreover, in the experiment with human MSLN antigen [2], the Kd amounted to 15.3 nM, the Response was 0.953, the koff worked out at 0.00887 s⁻¹ and the kon was 578000 M⁻¹ s⁻¹. In the experiment with cyno MSLN [3], this molecule showed a Kd of 21.5 nM, a Response of 0.822, a koff of 0.013 s⁻¹ and a kon of 608000 M⁻¹ s⁻¹. In the experiment with cyno MSLN [4], this molecule came in with a Kd of 6.7 nM.
